Experimental data published in WO2018223004A1 (dated 2018).

Molecular target: T1, human CD20 (B-lymphocyte antigen CD20) (human, UniProt P11836 1-297)
T1 sequence (looked up): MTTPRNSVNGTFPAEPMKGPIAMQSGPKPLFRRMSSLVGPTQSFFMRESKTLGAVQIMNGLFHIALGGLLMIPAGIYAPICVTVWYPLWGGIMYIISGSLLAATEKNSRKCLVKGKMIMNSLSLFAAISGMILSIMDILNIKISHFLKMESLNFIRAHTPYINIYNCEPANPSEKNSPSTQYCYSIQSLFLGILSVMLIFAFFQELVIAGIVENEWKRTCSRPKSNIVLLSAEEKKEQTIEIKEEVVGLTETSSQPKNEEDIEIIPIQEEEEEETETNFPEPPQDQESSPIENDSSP
Experiment: cell-based or functional assay

B1: XmAb13676 Anti-CD20 x Anti-CD3 Fab-scFv-Fc bispecific antibody (bispecific antibody)
heavy: QVQLVQSGAEVKKPGASVKVSCKASGYTFTSYNMHWVRQAPGQGLEWMGAIYPGNGDTSYNQKFQGRVTITADKSISTAYMELSSLRSEDTAVYYCARSTYYGGDWYFNVWGAGTLVTVSSASTKGPSVFPLAPSSKSTSGGTAALGCLVKDYFPEPVTVSWNSGALTSGVHTFPAVLQSSGLYSLSSVVTVPSSSLGTQTYICNVNHKPSDTKVDKKVEPKSCDKTHTCPPCPAPPVAGPSVFLFPPKPKDTLMISRTPEVTCVVVDVKHEDPEVKFNWYVDGVEVHNAKTKPREEEYNSTYRVVSVLTVLHQDWLNGKEYKCKVSNKALPAPIEKTISKAKGQPREPQVYTLPPSREEMTKNQVSLTCDVSGFYPSDIAVEWESDGQPENNYKTTPPVLDSDGSFFLYSKLTVDKSRWEQGDVFSCSVMHEALHNHYTQKSLSLSPGK
scFv: not shown
light: QIVLTQSPSSLSASVGDRVTITCRASSSVSYIHWFQQKPGKSPKPLIYATSNLASGVPVRFSGSGSGTDYTLTISSLQPEDFATYYCQQWTSNPPTFGGGTKVEIKRTVAAPSVFIFPPSDEQLKSGTASVVCLLNNFYPREAKVQWKVDNALQSGNSQESVTEQDSKDSTYSLSSTLTLSKADYEKHKVYACEVTHQGLSSPVTKSFNRGEC
In the case of B1, the “EC50 of Jeko-1 target cell killing in the absence of rituximab” value is reported as 0.024 µg/mL, the “EC50 of Jeko-1 target cell killing with 3 μg/ml rituximab” value is reported as 0.051 µg/mL and the “EC50 of Jeko-1 target cell killing with 10 μg/ml rituximab” value is reported as 0.093 µg/mL. The “EC50 of Jeko-1 target cell killing with 30 μg/ml rituximab” value was 0.162 µg/mL, the “EC50 of Jeko-1 target cell killing with 100 μg/ml rituximab” value was 0.387 µg/mL and the “EC50 of RTCC against Ramos cells with purified T cells from six healthy donors” value was 0.0053 to 0.0143 µg/mL. The “potency of killing of SC-1 against the cell lines with high or intermediate CD20 levels” value was about 10 fold.
